Measured values reported in patent publication US20240000960A1 (CLEVELAND CLINIC FOUNDATION, published 2024).

Biological target: T1, CD6 (as used in surface plasmon resonance) (human, UniProt P30203 18-402, limits assumed)
T1 construct: also called human CD6
T1 sequence (looked up): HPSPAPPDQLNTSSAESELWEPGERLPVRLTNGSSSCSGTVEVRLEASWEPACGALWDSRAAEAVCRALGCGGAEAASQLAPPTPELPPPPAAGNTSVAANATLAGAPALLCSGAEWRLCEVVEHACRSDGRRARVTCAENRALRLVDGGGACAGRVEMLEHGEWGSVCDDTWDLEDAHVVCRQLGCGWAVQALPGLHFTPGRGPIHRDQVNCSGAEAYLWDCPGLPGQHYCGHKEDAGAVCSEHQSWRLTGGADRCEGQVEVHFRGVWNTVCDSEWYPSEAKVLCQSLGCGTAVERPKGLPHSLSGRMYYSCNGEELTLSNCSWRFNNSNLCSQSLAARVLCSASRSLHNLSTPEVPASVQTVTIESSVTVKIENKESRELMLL
Assay: surface plasmon resonance

- Kd: 10 pM
B1: mouse anti-human CD6 IgG (UMCD6) (antibody, V domains shown)
VH: QVQLKESGPGLVAPSQSLSITCTVSGFSLSRYSVHWVRQPPGKGLEWLGLIWGGGFTDYNSALKSRLSITKDNSKSQVFLKMNSLQTDDTAMYYCAREGVAYWGQGTLVSVSA
VL: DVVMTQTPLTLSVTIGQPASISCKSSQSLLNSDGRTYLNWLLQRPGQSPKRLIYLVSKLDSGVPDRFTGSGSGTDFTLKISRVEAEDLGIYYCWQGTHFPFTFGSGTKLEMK
notes: Mouse IgG; also called parent anti-CD6 mAb; parental mouse anti-CD6 IgG
